Results reported in US20220411495A1, “POSITIVE ALLOSTERIC MODULATORS OF THE CALCIUM-SENSING RECEPTOR” (VIB VZW, priority 2019, published 2022).

Target: T1, human CaSR wild type (hCaSR WT) (Homo sapiens, UniProt P41180, E1011Q)
T1 construct: mGlu5 signal peptide (N, cleaved yes); expressed in transfected cells
T1 sequence (P41180 20-1078 E1011Q): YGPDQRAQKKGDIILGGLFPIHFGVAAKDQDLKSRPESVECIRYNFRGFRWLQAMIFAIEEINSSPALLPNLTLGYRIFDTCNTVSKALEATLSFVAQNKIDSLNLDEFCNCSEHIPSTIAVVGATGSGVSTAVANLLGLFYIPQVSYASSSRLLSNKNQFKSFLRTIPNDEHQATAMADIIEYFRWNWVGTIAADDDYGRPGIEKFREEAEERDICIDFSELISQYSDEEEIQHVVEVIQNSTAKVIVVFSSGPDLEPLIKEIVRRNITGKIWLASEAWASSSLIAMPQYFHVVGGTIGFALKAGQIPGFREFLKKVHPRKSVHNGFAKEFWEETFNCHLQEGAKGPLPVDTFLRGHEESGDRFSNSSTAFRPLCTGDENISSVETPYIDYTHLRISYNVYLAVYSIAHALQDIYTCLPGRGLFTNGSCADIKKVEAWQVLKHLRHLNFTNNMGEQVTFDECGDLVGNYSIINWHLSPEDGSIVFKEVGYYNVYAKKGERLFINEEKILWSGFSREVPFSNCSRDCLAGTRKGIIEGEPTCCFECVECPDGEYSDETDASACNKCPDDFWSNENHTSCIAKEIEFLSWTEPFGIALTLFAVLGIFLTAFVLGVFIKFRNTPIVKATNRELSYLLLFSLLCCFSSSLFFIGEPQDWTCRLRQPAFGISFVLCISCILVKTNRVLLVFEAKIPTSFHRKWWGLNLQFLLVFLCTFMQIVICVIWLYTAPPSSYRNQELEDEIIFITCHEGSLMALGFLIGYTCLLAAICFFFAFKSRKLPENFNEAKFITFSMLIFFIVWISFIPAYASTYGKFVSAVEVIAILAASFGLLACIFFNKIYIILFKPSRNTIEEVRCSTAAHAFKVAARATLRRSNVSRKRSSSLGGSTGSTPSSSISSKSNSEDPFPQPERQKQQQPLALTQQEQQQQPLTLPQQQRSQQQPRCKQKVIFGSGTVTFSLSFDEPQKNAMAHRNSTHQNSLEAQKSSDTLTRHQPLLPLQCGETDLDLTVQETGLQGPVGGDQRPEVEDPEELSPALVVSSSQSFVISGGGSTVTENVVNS
Experiment: IP1 accumulation assay, Flp-In HEK293 HA-hCaSR WT cells
Assay type: cell-based
Protocol: Nanobodies were successfully purified by immobilized metal ion affinity chromatography (IMAC) and size exclusion chromatography (SEC) prior to pharmacological characterization (FIG. 1). Each nanobody was initially screened for Gq/11 activity in the Cisbio IP1 accumulation assay as this is the primary signaling pathway of CaSR (Chavez-Abiega et al., 2020). Whole HEK293 HA-hCaSR WT cells were pre-incubated for 30 minutes at 37° C. with a fixed nanobody concentration (5 μM) prior to stimulation with the endogenous ligand Ca^2+. The well characterized positive allosteric modulator (PAM) chemical NPS R-568 and negative allosteric modulator (NAM) chemical NPS 2143 were added as reference compounds. […] No nanobodies with agonist or NAM activity were observed when all nanobodies screened in the absence or in the presence of EC80 Ca^2+, respectively (FIGS. 4A and 4B). […] Except for CaSR Nb5, the same nanobodies acted as PAMs when ERK1/2 phosphorylation was measured in the presence of EC20 Ca^2+ (FIG. 2B). Again, none of the nanobodies elicited an agonist or NAM response (FIGS. 5B and 5C).
All cell lines utilized in this study were grown at 37° C. and 5% CO2. The HEK293A (RRID: CVCL_6910) and stable Flp-In HEK293 cells were cultured in Dulbecco's Modified Eagle Medium (DMEM, #31966021) supplemented with 10% dialyzed Fetal Bovine Serum (dFBS) and 1% 10,000 units/mL penicillin and 10,000 μg/mL streptomycin mixture (pen/strep). The stable Flp-In CHO cells were cultured in F-12K medium (#21127022) supplemented with 10% dFBS and 1% pen/strep. Additionally, the stable Flp-In HEK293 and Flp-In CHO cell lines were cultured in the presence of respectively 200 and 500 μg/mL hygromycin B. For pharmacological characterization, Flp-In HEK293 HA-hCaSR WT cells were seeded in poly-D-lysine-coated clear 96 well tissue culture plates (Corning, Corning, N.Y., USA) at a density of 50,000 cells/well 18 h prior to assay. Experiments with HA-rCaSR WT and HA-hCaSR S170A required transient transfection of HEK293A cells 24 h prior to assay. DNA construct and Lipofectamine 2000 were diluted in Opti-MEM and mixed together after 5 minutes incubation at room temperature. For HA-rCaSR WT, 30 ng/well rCaSR DNA diluted in 25 μL/well Opti-MEM was mixed with 0.25 μL/well Lipofectamine 2000 in 25 μL/well Opti-MEM. For HA-hCaSR S170A, 40 ng/well […] DNA diluted in 25 μL/well Opti-MEM was mixed with 0.25 μL/well Lipofectamine 2000 in 25 μL/well Opti-MEM. The DNA:Lipofectamine 2000 mixtures were incubated 20 minutes at room temperature after which 50 μL/well was added to a poly-D-lysine-coated clear 96 well tissue culture plate. Next, 100 μL/well of a 400,000 cells/mL HEK293A cell solution prepared in culture media was added and the plate was placed at 37° C. and 5% CO2 (final cell density 40,000 cells/well).
Inositol monophosphate (IP1) accumulation was measured using the commercially available HTRF® IP1 accumulation kit (Cisbio Bioassays, Codolet, France) and an EnVision multimode plate reader (PerkinElmer, Waltham, Mass., USA). Unless stated otherwise, the cells were washed once with 100 μL/well assay buffer and stimulated for 30 minutes at 37° C. with 50 μL/well ligand(s) diluted in assay buffer supplemented with 20 mM LiCl. Following stimulation, the cells were washed once with 100 μL/well and lysed for 30 minutes at room temperature with 30 μL/well lysis buffer provided with the kit. The lysed cells were diluted 1:2 with assay buffer after which 10 μL/well was pipetted to a white 384-well OptiPlate (PerkinElmer, Waltham, Mass., USA). Next, 10 μL of a detection solution consisting of 2.5% IP1-d2 conjugate and 2.5% anti-IP1 antibody diluted in assay buffer was added to each well. Fluorophore emissions were measured after the plate was stored in the dark for 1 h. The 615/665 nm emission ratios measured upon excitation at 340 nm were converted to IP1 concentrations with an IP1 standard curve according to the manufacturer's instructions.

B1: Nb37: llama-derived CaSR-specific nanobody acting as PAM, SEQ ID NO:4 (protein)
VHH: QVQLVESGGGLVQPGDSLRVSCAASGGSFRSYAMAWFRRAPGKEREFVAAMSGTYGSTIYADSMKGRFTISRDNAKKMVYLRMNSLRAEDTAVYYCAGYYSGAYYGTPKTDYTEYDSWGQGTQVTVSS
modifications: CaSR Nb37
With B1 the “Max. response (fold over basal ± S.E.M.), human ortholog” value (IP1 accumulation at EC20 Ca2+) was 4.04 ± 0.32 fold over basal, the “Potency (pEC50 ± S.E.M.), human ortholog” value (IP1 accumulation at EC20 Ca2+, three independent experiments in triplicate) was 6.22 ± 0.05 and the “PAM activity in IP1 accumulation screen” value (fixed nanobody concentration 5 μM, EC20 Ca2+, 30 min pre-incubation) was “potentiated IP1 accumulation”.
